Experimental findings from article doi:10.1101/664102 are described below.

Common to all, as to assay: fluorescence polarisation
In assay [1] the target is fluorescein-labeled CaV1.2 IQ peptide WT (residues 1644-1666) (rat).
For assay [2], the target named is fluorescein-labeled CaV1.2 IQ peptide K1662E (rat).
For assay [3], the target named is fluorescein-labeled CaV1.2 IQ peptide K1647E (rat).
Assay [4] deals with fluorescein-labeled CaV1.2 IQ peptide K1647A (rat).
Assay [5] concerns the target fluorescein-labeled CaV1.2 IQ peptide WT (residues 1644-1666) (rat). The source holds these as a separate data set.

Where a chain is given by its changes, count along the chain named. Names and notes keep the numbering of the source. Values joined by “and” are separate entries in the source; they are usually repeats but may differ in a detail not shown here. Equal values may be shown once.

“apoCaM mutant F90A (from UniProt P0DP33 3-149) (natural protein)” gave a fold decrease in binding affinity against WT apoCaM in assay [1] of 3.3 fold.

Broadly, the Kd is the constant that tells how readily two partners part at equilibrium. Low readings indicate tighter binding, high ones weaker binding. Turning to “Ca2+-free calmodulin (apoCaM) (from UniProt P0DP33 1-149) (natural protein)”, the Kd in assay [1] is 10 µM and 2.6 µM. This molecule also gave a fold decrease in binding affinity against the WT pair in assay [2] of over 5 fold.

In turn, “apoCaM mutant E88K (from UniProt P0DP33 3-149) (natural protein)” showed a fold decrease in binding affinity against the WT pair in assay [1] of over 5 fold.

B1: α-actinin-1_EF34 (residues 822-892) (domain or fragment)
chain: DTDTADQVMASFKILAGDKNYITMDELRRELPPDQAEYCIARMAPYTGPDSVPGALDYMSFSTALYGESDL
B1: the fold increase of Kd against the WT IQ peptide in assay [3] and in assay [4] was 5 fold in each case.

B2: α-actinin-1_EF34 mutant E847K/E851K (domain or fragment)
chain: B1 chain with E26K, E30K
In assay [5], B2 showed a fold increase of Kd against WT α-actinin-1 EF3/4 of 12 fold.

B3: α-actinin-1 EF3/4 mutant F833A (domain or fragment)
chain: B1 chain with F12A
Regarding B3, the fold decrease in binding affinity against WT α-actinin-1 EF3/4 in assay [5] was determined as 8 fold.
